Reference: patent publication US20230108300A1 (University of Pennsylvania, published 2023)

Molecular target: MART1 clone DMF4 TCR (includes the TCRvβ12 segment) expressed on SupT1 cells
Assay: cell-based or functional assay

- lysis of the target cell lines at three E:T ratios: ~100%
B1: Vβ12-targeting CAR (construct not specified for the experiment) (other)
VH: EVMLVESGGGLVKPGGSLKLSCAASGFTFRSYAMSWVRQTPEKRLEWVATISSGGSYTNYPDSVKGRFTISRDNAKNTLNLQMNSLRSEDTAMYYCARGYHGYLDVWGAGTTVTVSS
VL: DILLTQSPAFLSVSPGERVSFSCRASQSIGTSIHWYQQRTNGSPRLLIKYASESFSGIPSRFSGSGSGTDFTLSISSVESEDIADYYCQQSYSWPYTFGGGTKLEIK
